One compound from patent US11857648B2, “Dimerization strategies and compounds for molecular imaging and/or radioimmunotherapy” (UNIVERSITY OF PITTSBURGH—OF THE COMMONWEALTH SYSTEM OF …, priority 2016, dated 2024) can be followed below.

Data set [1] is described as follows: PET/CT imaging, orthotopic xenograft mouse model. In kind it is in vivo, Balb/c mice. To be noted: Balb/c, mouse, iv, total radioactivity, 1 hour post injection. As for the experimental part: (§1) In vivo PET/CT imaging was conducted in Balb/c mice. One week after the orthotropic implantation of 1×10^6 luciferase-transfected KPCP cancer cells into the pancreas of Balb/c mice, the mice were used for PET imaging. Either the CNGRC-(^68Ga)NOTA-RGDyK heterodimer (“CNGRC” disclosed as SEQ ID NO: 1), (^68Ga)NOTA(CNGRC) (“CNGRC” disclosed as SEQ ID NO: 1), or (^68Ga)NOTA(RGDyK)] were injected into the bloodstream via tail vein injection. Blocking studies were conducted for the heterodimer studies by co-injecting 100× of CNGRC (SEQ ID NO: 1) and RGDyK. Small animal PET/CT was performed at 1 hour post injection of tracers (FIGS. 15A-15C).

Data set [2] relates to luciferase-transfected KPCP cancer cells. As to the kind of experiment: PET/CT imaging, orthotopic xenograft mouse model. In kind it is in vivo, Balb/c mice. The note with it: 1 hour post injection. As for the experimental part: as §1
For data set [3], the system named is KCH (Pdx1-Cre;K-RasG12D/+; HMGB1−/−) mouse model. Briefly: PET/CT imaging, spontaneous transgenic mouse model. The protocol:
(§2) In vivo PET/CT imaging was conducted in the genetically engineered KCH (Pdx1-Cre;K-RasG12D/+; HMGB1−/−) mouse model. High mobility group box 1 (HMGB1) is a critical regulator of autophagy, a major pathway for degradation of effete proteins and damaged organelles, and the conditional genetic ablation of HMGB1 limited to the pancreas inhibits autophagy, promotes proliferation, activates normally quiescent pathways, and renders mice extraordinarily sensitive to K-RasG12D/+-driven pancreatic carcinogenesis. The progression of PanINs from low grade PanINI to high grade PanIN3 could be observed as early as seven days (normally three-nine months) after birth in KCH (Pdx1-Cre;K-RasG12D/+;HMGB1−/−). PET imaging normally was performed˜6 weeks old KCH mice.
(§3) Either the CNGRC-(^68Ga)NOTA-RGDyK (“CNGRC” disclosed as SEQ ID NO: 1) heterodimer, (^68Ga)NOTA(CNGRC) (“CNGRC” disclosed as SEQ ID NO: 1), or (^68Ga)NOTA(RGDyK)] were injected into the bloodstream via tail vein injection. Blocking studies were conducted for the heterodimer studies by co-injecting 100× of CNGRC (SEQ ID NO: 1) and RGDyK. Small animal PET/CT was performed at 1 hour post injection of tracers (FIGS. 16A-16D).

A short description of data set [4]: PET/CT imaging, spontaneous transgenic mouse model. To be noted: KCH (Pdx1-Cre;K-RasG12D/+; HMGB1−/−), mouse, in vivo, iv, total radioactivity, 1 hour post injection. As for the experimental part:
as §2, §3

Data set [5] has as its system bxpc3 and 4T1 tumor xenografts. As to the kind of experiment: PET/CT imaging, subcutaneous xenograft mouse model. In kind it is in vivo, NCr nude mice. To be noted: 1 hour post injection. As for the experimental part:
In vivo PET/CT imaging was conducted in NCr nude mice bearing bxpc3 (human pancreatic adenocarcinoma cell line) and 4T1 (a murine breast cancer cell line that overexpresses integrin αvβ3 and CD13) tumor xenografts.
Mice were injected with bxpc3 cells (1 million cells in 150 μL PBS) into the subcutaneous flank of the right shoulder and 4T1 cells (1 million cells in 150 μL PBS) into the subcutaneous flank of the left shoulder.

Regarding `N=C(N)NCCC[C@@H]1NC(=O)CNC(=O)[C@H](CC(N)=O)NC(=O)[C@@H](NC(=O)CCOCCOCCOCCOCCNC(=O)C(CCn2nnc3c2CCC2C(CC3)C2COC(=O)NCCOCCOCCOCCOCCC(=O)NCCCC[C@@H]2NC(=O)[C@@H](Cc3ccc(O)cc3)NC(=O)[C@H](CC(=O)O)NC(=O)CNC(=O)[C@H](CCCNC(=N)N)NC2=O)N2CCN(CC(=O)O)CCN(CC(=O)O)CC2)CSSC[C@@H](C(N)=O)NC1=O` (some centres unmarked) [CNGRC-(^68Ga)NOTA-RGDyK, metal not drawn], the tissue uptake at 1 h in data set [1] (blood, read-out: uptake in blood) came out at 0.1 %ID/g; in data set [1] (kidney, read-out: uptake in kidney), 2.2 %ID/g; in data set [1] (liver, read-out: uptake in liver) it was 1.8 %ID/g; in data set [1] (muscle, read-out: uptake in muscle) it was 0.1 %ID/g; in data set [1] (pancreas, read-out: uptake in pancrease) it was 0.36 %ID/g; in data set [1] (spleen, read-out: uptake in spleen) it was 1.1 %ID/g. Also, the tissue uptake at 1 h was 0.23 %ID/g in data set [4] (uptake in blood); 5 %ID/g in data set [4] (uptake in kidney); 4.7 %ID/g in data set [4] (uptake in liver); 0.38 %ID/g in data set [4] (uptake in muscle); 3.1 %ID/g in data set [4] (uptake in spleen). In addition, the in vivo performance entry is recorded as “longer blood retention, better tumor/non-tumor ratios” in data set [2]; “longer blood retention, better tumor/non-tumor ratios” in data set [3] (1 hour post injection); “longer blood retention, better tumor/non-tumor ratios” in data set [5]. Further, in data set [2], the “uptake in orthotopic tumor” value is listed as 1.4 % ID/g. The “uptake in malignant pancreas” value in data set [3] (1 hour post injection) is 5.9 % ID/g. Moreover, the specific tumor uptake entry in data set [3] (PET imaging) is given as “showed specific tumor uptake”.
